Source: patent publication US8580556B2, “Sulfonylurea-responsive repressor proteins” (E. I. du Pont de Nemours and Company, priority 2008, dated 2013)
Residue numbers refer to the chain shown, from its start.

B1: L6-1B03 (protein)
chain: MGSRLDKSKVINSALELLNEVGIEGLTTRKLAQKLGVEQPTLYWHVKNKRALLDALAIEMMDRHATHICPLEGESWQDFLRNNAKSMRCALLSHRDGAKVCLGTRWTEQQYEAAENMLAFLCQQGFSLENALYAVSAVRVFTLGCVLFDQESQVAKEERETPTTASMPPLLRQAWELKDHQGAEPAFLFGLELIICGLEKQLKCESGS
modifications: Sulfonylurea responsive repressor L6-1B03
B2: L6-4D10 (protein)
chain: B1 chain with A65Q, I68Y, Q109K, A113S
modifications: Sulfonylurea responsive repressor L6-4D10
B3: L6-2D07 (protein)
chain: B1 chain with A65Q, I68F, N83T, A113T, V135M, L171V
modifications: Sulfonylurea responsive repressor L6-2D07
B4: L6-5F05 (protein)
chain: B1 chain with M117Q, S152L
modifications: Sulfonylurea responsive repressor L6-5F05
B5: L6-5H06 (protein)
chain: B1 chain with A65Q, Q109K, A113T, S152L, L171V
modifications: Sulfonylurea responsive repressor L6-5H06
B6: L6-2C09 (protein)
chain: B1 chain with A65Q, I68Y, N83T, Q110L, A113T, M117Q, V135M, S152L
modifications: Sulfonylurea responsive repressor L6-2C09
B7: L6-3H02: SuR polypeptide, SEQ ID NO: 94 (protein)
chain: B1 chain with I68Y, N83T, Q110H, A113S, L171V, D179V
modifications: Sulfonylurea responsive repressor L6-3H02
B8: L6-5H12 (protein)
chain: B1 chain with I68Y, Q109K, A113T, M117Q, V135M, S152L, L171V
modifications: Sulfonylurea responsive repressor L6-5H12
B9: L6-6F07 (protein)
chain: B1 chain with I68L, N83T, A113S, V135M
modifications: Sulfonylurea responsive repressor L6-6F07
B10: L6-5G06 (protein)
chain: B1 chain with A65Q, I68Y, A113T, M117Q, S152L, A174G
modifications: Sulfonylurea responsive repressor L6-5G06
B11: L1-25: library L1 reverse repressor hit (SEQ ID NO: 1206-1213) (protein)
chain: MGSRLDKSKVINSALELLNEVGIEGLTTRKLAQKLGVEQPTLYWHVKNKRALLDALAIEMLDRHATHFCPLEGESWQDFLRNTAKSMRCALLSHRDGAKVLLGTATTEKQYETLENLLAFLYQQGFSLENALYAWQAVWRFTLGCVLIDQETQVAKEERETPTTDSMPPLLRQAVELKDHQGAEPAFLFGLELIICGLEKQLKCETGS
modifications: rSuR L1-25
B12: L1-33: library L1 reverse repressor hit (SEQ ID NO: 1206-1213) (protein)
chain: MGSRLDKSKVINSALELLNEVGIEGLTTRKLAQKLGVEQPTLYWHVKNKRALLDALAIEMLDRHATHFCPLEGESWQDFLRNNAKSMRCALLSHRDGAKVQLGTAATEKQYETLENKLAFLCQQGFSLENALYAHSAVTQFTLGCVLRDQEGQVAKEERETPTTDSMPPLLRQARELRDHQGAEPAFLFGLELIICGLEKQLKCESGS
modifications: rSuR L1-33
B13: L1-34: library L1 reverse repressor hit (SEQ ID NO: 1206-1213) (protein)
chain: MGSRLDKSKVINSALELLNEVGIEGLTTRKLAQKLGVEQPTLYWHVKNKRALLDALAIEMADRHNTHFCPLEGESWQDFLRNAARSMRCALLSHRDGAKVYLGTARTEKQYETTENVLAFLCQQGFSLENALYAVRAVPRFTLGCVLLDQERQVAKEERETPTTDSMPPLLRQARELTDHQGAEPAFLFGLELIICGLEKQLKCESGS
modifications: rSuR L1-34

system: tetA promoter (PtetA)-lacZ reporter in E. coli KM3; assay type: cell-based; conditions: not given

Point of comparison: B9, “0.2 ppm 48 hr/Control 84 hr” value 2.3. Against it:
- B1 — higher, 4.6
- B2 — higher, 3.7
- B3 — higher, 3.4
- B4 — higher, 4.1
- B5 — higher, 2.7
- B6 — higher, 2.6
- B7 — higher, 2.8
- B8 — higher, 4.2
- B10 — higher, 4.9

same assay, conditions: M9 assay plates, 0.2 ppm chlorsulfuron as inducer, 48 hr at 30° C., colony color intensity by ImageJ

Point of comparison: B4, “0.2 ppm 48 hr (colony color intensity, induction by chlorsulfuron)” value 22.0. Against it:
- B1 — higher, 30.0
- B3 — lower, 20.0

same assay, conditions: M9 assay plates, no inducer, 84 hr at 30° C., colony color intensity by ImageJ

Point of comparison: B2, “Control 84 hr (colony color intensity, background activity without inducer)” value 5.0. Against it:
- B1 — higher, 6.6
- B3 — higher, 5.8
- B4 — higher, 5.4
- B5 — higher, 5.1
- B6 — higher, 5.2
- B7 — higher, 5.6
- B8 — higher, 5.7
- B9 — higher, 5.1
- B10 — higher, 7.0

same assay, conditions: Table 6, reverse repressor hits; anhydrotetracycline

Point of comparison: B13, “relative β-galactosidase activity, inducer atc” value 3.68. Against it:
- B11 — lower, 1.22
- B12 — higher, 8.25

same assay, conditions: Table 6, reverse repressor hits; chlorimuron, same plate assay format as Table 4

Point of comparison: B13, “relative β-galactosidase activity, inducer Ci” value 0.43. Against it:
- B11 — lower, 0.11
- B12 — higher, 0.76

same assay, conditions: Table 6, reverse repressor hits; chlorsulfuron, same plate assay format as Table 4

Point of comparison: B11, “relative β-galactosidase activity, inducer Cs” value 0.28. Against it:
- B12 — higher, 3.74
- B13 — higher, 0.85

same assay, conditions: Table 6, reverse repressor hits; ethametsulfuron, same plate assay format as Table 4

Point of comparison: B11, “relative β-galactosidase activity, inducer Es” value 0.13. Against it:
- B12 — higher, 2.11
- B13 — higher, 1.33

same assay, conditions: Table 6, reverse repressor hits; metsulfuron, same plate assay format as Table 4

Point of comparison: B11, “relative β-galactosidase activity, inducer Ms” value 0.32. Against it:
- B12 — higher, 4.29
- B13 — higher, 1.47

same assay, conditions: Table 6, reverse repressor hits; nicosulfuron, same plate assay format as Table 4

Point of comparison: B12, “relative β-galactosidase activity, inducer Ns” value 5.34. Against it:
- B11 — lower, 1.21
- B13 — lower, 2.91

same assay, conditions: Table 6, reverse repressor hits; no inducer

Point of comparison: B12, “relative β-galactosidase activity, inducer Blank” value 7.59. Against it:
- B11 — lower, 1.17
- B13 — lower, 2.37

same assay, conditions: Table 6, reverse repressor hits; rimsulfuron, same plate assay format as Table 4

Point of comparison: B12, “relative β-galactosidase activity, inducer Rs” value 10.32. Against it:
- B11 — lower, 1.08
- B13 — lower, 2.30

same assay, conditions: Table 6, reverse repressor hits; sulfometuron, same plate assay format as Table 4

Point of comparison: B13, “relative β-galactosidase activity, inducer Sm” value 2.00. Against it:
- B11 — lower, 0.63
- B12 — higher, 5.02

same assay, conditions: Table 6, reverse repressor hits; thifensulfuron, same plate assay format as Table 4

Point of comparison: B11, “relative β-galactosidase activity, inducer Ts” value 0.64. Against it:
- B12 — higher, 5.51
- B13 — higher, 2.97

same assay, conditions: Table 6, reverse repressor hits; tribenuron, same plate assay format as Table 4

Point of comparison: B12, “relative β-galactosidase activity, inducer Tb” value 4.71. Against it:
- B11 — lower, 1.72
- B13 — lower, 2.26
